Laboratory results: patent US20170275376A1 (Chugai, published 2017)

Key:
anti-FIXa-arm of ACE910 = molecular target: T1, anti-FIXa-arm of ACE910; experiment: ELISA, hybridoma culture supernatant
T1 construct: This is inferred from the parallel order 'anti-FIXa/FX' and 'Q499-z121/J327-z119' and from the AQ/AJ antibody names; also called anti-FIXa side; anti-FIXa-F(ab')2
Protocol: (§1) Mice and rats were immunized with anti-FIXa-F(ab′)2 or anti-FX-F(ab′)2. Cells obtained from the spleen removed from the mice or rats or from rat lymph nodes were subjected to cell fusion with mouse myeloma cells by following general methods to produce the hybridomas. The culture supernatants of the hybridomas were evaluated by ELISA which detects the binding of ACE910 to the anti-FIXa-arm or the anti-FX-arm, and ultimately, mouse antibodies, AQ8 and AQ1, and rat antibody, AQ512, which bind only to the anti-FIXa-arm but not to the anti-FX-arm of ACE910, and rat antibodies, AJ540, AJ114, AJ521, AJ522, and AJ541, which bind only to the anti-FX-arm but not to the anti-FIXa-arm of ACE910 were selected. In addition, the nucleotide sequences of the variable regions of the AQ8 antibody or the AJ540 antibody were analyzed. The nucleotide sequences of the variable regions of AQ8 and AJ540, and amino acid sequences predicted therefrom were analyzed using GENETYX Ver.9 (GENETYX CORPORATION).

anti-FX-arm of ACE910 = molecular target: T2, anti-FX-arm of ACE910; experiment: ELISA, hybridoma culture supernatant
T2 construct: This is inferred from the parallel order 'anti-FIXa/FX' and 'Q499-z121/J327-z119' and from the AQ/AJ antibody names; also called anti-FX side; anti-FX-F(ab')2
T2 sequence (VH, as listed by the source, chain 1 of 2): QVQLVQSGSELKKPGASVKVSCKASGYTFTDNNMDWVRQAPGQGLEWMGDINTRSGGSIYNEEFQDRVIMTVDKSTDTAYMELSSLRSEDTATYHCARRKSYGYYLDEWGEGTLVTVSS
T2 sequence (VL, as listed by the source, chain 2 of 2): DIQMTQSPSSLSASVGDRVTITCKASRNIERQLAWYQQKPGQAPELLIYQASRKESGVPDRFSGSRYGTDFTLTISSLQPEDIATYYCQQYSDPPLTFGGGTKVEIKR
Protocol: as §1

T1 sequence (VH, as listed by the source, chain 1 of 2): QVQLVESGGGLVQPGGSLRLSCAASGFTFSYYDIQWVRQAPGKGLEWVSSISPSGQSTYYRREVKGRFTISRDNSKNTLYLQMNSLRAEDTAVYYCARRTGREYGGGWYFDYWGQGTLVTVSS
T1 sequence (VL, as listed by the source, chain 2 of 2): as the sequence (VL, as listed by the source, chain 2 of 2) above

| Binder | binding result (anti-FIXa-arm of ACE910) | binding result (anti-FX-arm of ACE910) |
| --- | --- | --- |
| rat antibody AJ540 (antibody, V domains shown, Rat hybridoma antibody, tested as culture supernatant in ELISA; also called AJ540 antibody) VH: QIQLVQSGPELKKPGESVKISCKASGYTFTDYAMHWVKQVPGKGLKWMGWINTYTGKPTYADDFKGRFVFSLEASASTANLQISNLKNEDTANVFCAREGGGYYWYFDFWGPGTMVTVSS VL: DIVMTQSPTSMSISVGDRVTMNCKANQNVDFNVDWYQQKTGQSPKLLIYKASNRYTGVPDRFTGSGSGTDFTFTISNMQAEDLAVYYCMQSNSFPLTFGSGTNLEIK | no binding | – |
| mouse antibody AQ8 (antibody, V domains shown, Mouse hybridoma antibody, tested as culture supernatant in ELISA; also called AQ8 antibody) VH: EVNLVESGGGLVQPGGSMSLSCAASGFTFTDYYMSWVRQPPGKALEWLALIRNKANGYTTEYSASVKGRFTISRDNSQSILYLQMNALRAEDSATYYCARDSYYSYDGYAMDYWGQGTSVTVSS VL: DIQMTQSPASLAASVGETITITCQASENIYFSLAWYQQKQGKSPQLLIYNTDSLKDGVPSRFSGSGSGTQYSMKINSMQPEDTATYFCRQSYDFPWTFGGGTKLEIK | – | no binding |
